Results reported in patent US20240417440A1 (published 2024).

What was measured:
[1] = target: T1, NY-ESO-1 peptide on HLA-A*02:01 (human); assay: cytokine release
T1 peptide: FTVSGNILTI

[2] = target: T2, NY-ESO-1 peptide on HLA-A*02:01 (human); assay: cytokine release
T2 peptide: RLLEFYLAM

[3] = target: T3, NY-ESO-1/LAGE-1 peptide on HLA-A*02:01 (human); assay: multimer staining
T3 peptide: SLLMWITQC

binding result [1]: no recognition
binding result [2]: no recognition
binding result [3]: recognises
B1: T11.8-10-17 (TCR, V domains shown)
Valpha: QKEVEQNSGPLSVPEGAIASLNCTYSDRGSQSFFWYRQYSGKSPELIMFIYSNGDKEDGRFTAQLNKASQYVSLLIRDSQPSDSATYLCAADDKIIFGKGTRLHILP
Vbeta: DAGVIQSPRHEVTEMGQEVTLRCKPISGHDYLFWYRQTMMRGLELLIYFNNNVPIDDSGMPEDRFSAKMPNASFSTLKIQPSEPRDSAVYFCASSRGGSGYTFGSGTRLTVV
